Literature values as cited in publication PMC5805400.
Where two headings read alike, the source gives them in different places. Blank lines part the entries; values can stand above or below the substance they belong to.

Experiments:
[1] = target: CYP2J2 (Homo sapiens) (UniProt P51589); test: spin shift
[2] = target: CYP2B4 (Oryctolagus cuniculus) (UniProt P00178)
[3] = target: CYP2B4 (Oryctolagus cuniculus) (UniProt P00178); remark: listed apart in the source
[4] = target: ICP47 (Human alphaherpesvirus 1) (UniProt P03170)
Sequence of UniProt P03170 (P03170 whole entry): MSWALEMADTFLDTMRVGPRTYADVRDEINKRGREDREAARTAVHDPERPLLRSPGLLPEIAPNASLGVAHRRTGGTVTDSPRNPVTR

[5] = target: ICP47 (Human alphaherpesvirus 1) (UniProt P03170); remark: listed apart in the source

Sequence of UniProt P00178 (P00178 whole entry): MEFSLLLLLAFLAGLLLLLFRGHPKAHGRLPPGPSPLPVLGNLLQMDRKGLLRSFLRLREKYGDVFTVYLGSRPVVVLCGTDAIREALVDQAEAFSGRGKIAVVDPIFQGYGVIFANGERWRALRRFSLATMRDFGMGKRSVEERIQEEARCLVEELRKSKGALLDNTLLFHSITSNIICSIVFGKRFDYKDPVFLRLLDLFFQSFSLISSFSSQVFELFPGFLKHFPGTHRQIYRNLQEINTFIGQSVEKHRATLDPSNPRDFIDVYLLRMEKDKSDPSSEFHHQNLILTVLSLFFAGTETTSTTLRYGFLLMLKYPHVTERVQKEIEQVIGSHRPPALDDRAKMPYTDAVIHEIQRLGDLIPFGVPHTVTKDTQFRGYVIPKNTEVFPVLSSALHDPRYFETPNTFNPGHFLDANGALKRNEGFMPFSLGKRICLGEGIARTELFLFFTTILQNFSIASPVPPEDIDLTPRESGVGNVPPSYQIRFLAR
Sequence of UniProt P51589 (P51589 whole entry): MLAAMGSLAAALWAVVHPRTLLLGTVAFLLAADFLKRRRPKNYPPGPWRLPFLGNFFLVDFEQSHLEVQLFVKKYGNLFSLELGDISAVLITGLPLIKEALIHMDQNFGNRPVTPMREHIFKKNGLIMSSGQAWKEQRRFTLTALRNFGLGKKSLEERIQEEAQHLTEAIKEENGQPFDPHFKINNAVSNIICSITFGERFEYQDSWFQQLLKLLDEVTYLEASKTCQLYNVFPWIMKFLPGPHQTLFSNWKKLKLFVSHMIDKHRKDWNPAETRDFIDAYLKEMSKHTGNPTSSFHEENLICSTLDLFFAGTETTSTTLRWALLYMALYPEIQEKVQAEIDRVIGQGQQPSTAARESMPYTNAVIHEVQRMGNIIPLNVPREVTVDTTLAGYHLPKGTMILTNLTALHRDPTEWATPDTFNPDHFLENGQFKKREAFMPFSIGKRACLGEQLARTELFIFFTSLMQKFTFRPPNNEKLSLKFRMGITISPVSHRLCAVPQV

Kd [1]: 120 nM
Substance: CPR (from UniProt P16435)

Kd [2]: 140 nM
Kd [3]: 8 nM
Substance: Cytochrome b5 (from UniProt P00169)

Substance: TAP (from UniProt Q03518)
Ki [4]: 280 nM
Ki [5]: 210 nM
